Experimental data from patent US6429304.

Biological target: microtubules prepared from bovine brain tubulin (taxol-stabilized)

B1: baculovirus-expressed S. purpuratus katanin p60 subunit with N-terminal His(6) tag (protein)
chain: HHHHHHMSVDEICENTKMGREYALLGNYETSLVYYQGVLQQIQKLLTSVHEPQRKHQWQTIRQELSQEYEHVKNITKTLNGFKSEPAAPEPAPNHRAAPFSHHQHAAKPAAAEPARDPDVWPPPTPVDHRPSPPYQRAARKDPPRRSEPSKPANRAPGNDRGGRGPSDRRGDARSGGGGRGGARGSDKDKNRGGKSDKDKKAPSGEEGDEKKFDPAGYDKDLVENLERDIVQRNPNVHWADIAGLTEAKRLLEEAVVLPLWMPDYFKGIRRPWKGVLMVGPPGTGKTMLAKAVATECGTTFFNVSSASLTSKYHGESEKLVRLLFEMARFYAPSTIFIDEIDSICSKRGTGSEHEASRRVKSELLIQMDGVSGPSAGEESSKMVMVLAATNFPWDIDEALRRRLEKRIYIPLPEIDGREQLLRINLKEVPLADDIDLKSIAEKMDGYSGADITNVCRDASMMAMRRRIQGLRPEEIRHIPKEELNQPSTPADFLLALQKVSKSVGKEDLVKYMAWMEEFGSV
  ATPase activity (malachite green): p60 alone displayed a microtubule-stimulated ATPase activity
  maximal basal and microtubule-stimulated ATPase rates relative to p60/p80: only 2-fold lower than those of the p60/p80 heterodimer
  microtubule concentration at peak ATPase stimulation: peak at ˜2 µM tubulin
  microtubule severing (fluorescence microscopy assay): Both p60 and p60/p80 severed microtubules in this assay
  rate of microtubule disassembly (DAPI fluorescence assay): p60 was half as active as p60/p80

B2: co-expressed recombinant p60/p80 katanin heterodimer (baculovirus, both subunits with N-terminal His(6) tag) (protein)
chain 1: HHHHHHMSVDEICENTKMGREYALLGNYETSLVYYQGVLQQIQKLLTSVHEPQRKHQWQTIRQELSQEYEHVKNITKTLNGFKSEPAAPEPAPNHRAAPFSHHQHAAKPAAAEPARDPDVWPPPTPVDHRPSPPYQRAARKDPPRRSEPSKPANRAPGNDRGGRGPSDRRGDARSGGGGRGGARGSDKDKNRGGKSDKDKKAPSGEEGDEKKFDPAGYDKDLVENLERDIVQRNPNVHWADIAGLTEAKRLLEEAVVLPLWMPDYFKGIRRPWKGVLMVGPPGTGKTMLAKAVATECGTTFFNVSSASLTSKYHGESEKLVRLLFEMARFYAPSTIFIDEIDSICSKRGTGSEHEASRRVKSELLIQMDGVSGPSAGEESSKMVMVLAATNFPWDIDEALRRRLEKRIYIPLPEIDGREQLLRINLKEVPLADDIDLKSIAEKMDGYSGADITNVCRDASMMAMRRRIQGLRPEEIRHIPKEELNQPSTPADFLLALQKVSKSVGKEDLVKYMAWMEEFGSV
chain 2: HHHHHHMATKRAWKLQELVAHSSNVNCLALGPMSGRVMVTGGEDKKVNLWAVGKQNCIISLSGHTSPVDSVKFNSSEELVVAGSQSGTMKIYDLEPAKIVRTLTGHRNSIRCMDFHPFGEFVASGSTDTNVKLWDVRRKGCIYTYKGHSDQVNMIKFSPDGKWLVTASEDTTIKLWDLTMGKLFQEFKNHTGGVTGIEFHPNEFLLASGSSDRTVQFWDLETFQLVSSTSPGASAVRSISFHPDGSYLFCSSQDMLHAFGWEPIRCFDTFSVGWGKVADTVIASTQLIGASFNATNVSVYVADLSRMSTTGIAQEPQSQPSKTPSGGAEEVPSKPLTASGRKNFVRERPHTTSSKQRQPDVKSEPERQSPTQDEGVKDDDATDIKDPDSYAKIFSPKTRVDHSPERNAQPFPAPLDVPGAQEPEPFKHPPKPAAAAAVAPVSRAPAPSASDWQPAQANPAPNRVPAATKPVPAQEVAPSRKPDPISTIIPSDRNKPANLDMDAFLPPAHAQQAPRVNAPASRKQSDSERIEGLRKGHDSMCQVLSSRHRNLDVVRAIWTAGDAKTSVESVVNMKDQAILVDILNIMLLKKSLWNLDMCVVVLPRLKELLSSKYENYVHTSCACLKLILKNFTSLFNQNIKCPPSGIDITREERYNKCSKCYSYLIATRGYVEEKQHVSGKLGSSFRELHLLLDQLE
  ATPase activity (malachite green), stimulation by microtubules: this activity was stimulated ˜10-fold by microtubules
  maximal microtubule-stimulated ATPase rate: maximal microtubule-stimulated rate of 3 ATP/katanin/sec
  microtubule concentration at peak ATPase stimulation: peak at ˜2 µM tubulin
  microtubule severing (fluorescence microscopy assay): Both p60 and p60/p80 severed microtubules in this assay
